B1: scFv; the commonest letter at each place (parent)
chain 1: EVKLDETGGGLVQPGRPMKLSCVASGFTFSDYWMNWVRQSPEKGLEWVAQIRNKPYNYETYYSDSVKGRFTISRDDSKSSVYLQMNNLRVEDMGIYYCTGSYYGMDYWGQGTSVTVS
chain 2: DVVMTQTPLSLPVSLGDQASISCRSSQSLVHSNGNTYLRWYLQKPGQSPKVLIYKVSNRFSGVPDRFSGSGSGTDFTLKISRVEAEDLGVYFCSQSTHVPWTFGGGTKLEIK

Experiments:
fluorescein = variants of: B1; test: Kd (Tite-Seq); settings: with fluorescein; format: scFv 4-4-20, heavy + light
[1] = variants of: B1; test: yeast surface expression (ratio to wild type); higher = more expressed; settings: format: scFv 4-4-20, heavy + light

| Variant | Kd (fluorescein) [µM] | yeast surface expression [1] |
| --- | --- | --- |
| chain 1 M105V Y107H | ≥ 10 | 0.957 |
| chain 1 M105W W108K | 2.88 | 0.363 |
| chain 1 M105W Y107P | ≥ 10 | 0.452 |
| chain 1 M105Y D106H W108L | ≥ 10 | 0.362 |
| chain 1 M105Y G109S | 0.0507 | 0.936 |
| chain 1 N35A | ≥ 10 | 0.902 |
| chain 1 N35C | ≥ 10 | 0.708 |
| chain 1 N35C V37L | ≥ 10 | 0.527 |
| chain 1 N35D | ≥ 10 | 0.922 |
| chain 1 N35E | ≥ 10 | 0.802 |
| chain 1 N35E V37Q | ≥ 10 | 0.427 |
| chain 1 N35E V37W | ≥ 10 | 0.704 |
| chain 1 N35E W36E | ≥ 10 | 1.23 |
| chain 1 N35F | ≥ 10 | 0.708 |
| chain 1 N35F V37A | ≥ 10 | 0.871 |
| chain 1 N35F V37D | ≥ 10 | 0.704 |
| chain 1 N35F V37S | ≥ 10 | 0.884 |
| chain 1 N35G | 0.0102 | 0.989 |
| chain 1 N35H | ≥ 10 | 0.793 |
| chain 1 N35H W36L | ≥ 10 | 0.718 |

| Variant | Kd (fluorescein) [µM] | yeast surface expression [1] |
| --- | --- | --- |
| chain 1 N35I | ≥ 10 | 0.652 |
| chain 1 N35I W36L | ≥ 10 | 2.65 |
| chain 1 N35I W36N | ≥ 10 | 0.743 |
| chain 1 N35K | 0.228 | 0.806 |
| chain 1 N35K V37K | 6.96 | 0.0981 |
| chain 1 N35K V37M | ≥ 10 | 0.48 |
| chain 1 N35K W36F | ≥ 10 | 0.453 |
| chain 1 N35L V37P | ≥ 10 | 0.67 |
| chain 1 N35L W36I | ≥ 10 | 0.256 |
| chain 1 N35L W36R | ≥ 10 | 0.352 |
| chain 1 N35P W36T | ≥ 10 | 0.338 |
| chain 1 N35P W36V | 7.33 | 1.08 |
| chain 1 N35Q W36M | ≥ 10 | 0.504 |
| chain 1 N35R | ≥ 10 | 0.534 |
| chain 1 N35R W36P | ≥ 10 | 0.809 |
| chain 1 N35S V37L | ≥ 10 | 0.839 |
| chain 1 N35T | ≥ 10 | 0.879 |
| chain 1 N35T V37P | ≥ 10 | 0.726 |
| chain 1 N35V W36M | ≥ 10 | 0.488 |
| chain 1 S30A M34Y | 0.00361 | 0.977 |

| Variant | Kd (fluorescein) [µM] | yeast surface expression [1] |
| --- | --- | --- |
| chain 1 S30A N35Y | ≥ 10 | 0.655 |
| chain 1 S30A W36H | ≥ 10 | 0.457 |
| chain 1 S30C | 0.00128 | 0.906 |
| chain 1 S30C D31F | 5.96 | 0.592 |
| chain 1 S30C M34V | 0.00827 | 0.65 |
| chain 1 S30C V37D | 2.01 | 1.73 |
| chain 1 S30C W33I | ≥ 10 | 0.877 |
| chain 1 S30C W33Y | ≥ 10 | 1.04 |
| chain 1 S30C W36E | ≥ 10 | 0.214 |
| chain 1 S30C Y32V | ≥ 10 | 0.7 |
| chain 1 S30D | 0.00205 | 0.919 |
| chain 1 S30D M34F | 0.00142 | 1.22 |
| chain 1 S30D N35R | ≥ 10 | 0.195 |
| chain 1 S30D V37F | 4.37 | 0.942 |
| chain 1 S30D W36R | ≥ 10 | 2.14 |
| chain 1 S30D W36V V37L | ≥ 10 | 0.433 |
| chain 1 S30E | 0.000962 | 0.948 |
| chain 1 S30E M34W N35M | ≥ 10 | 0.493 |
| chain 1 S30E W33Q | ≥ 10 | 0.96 |
| chain 1 S30F M34C | 4.14 | 0.514 |

Further lines, with some results ahead:

| Kd (fluorescein) [µM] | Variant | yeast surface expression [1] |
| --- | --- | --- |
| 0.00251 | chain 1 M105W | 0.648 |
| 0.000454 | chain 1 M105W W108V | 0.756 |
| ≥ 10 | chain 1 M105W Y107C | 0.264 |
| 0.0129 | chain 1 M105Y | 0.866 |
| ≥ 10 | chain 1 M105Y D106A | 0.432 |
| ≥ 10 | chain 1 M105Y W108N | 0.301 |
| ≥ 10 | chain 1 M105Y W108R | 0.286 |
| ≥ 10 | chain 1 N35A W36P | 0.663 |
| ≥ 10 | chain 1 N35C V37K | 0.542 |
| ≥ 10 | chain 1 N35C V37M | 0.689 |
| ≥ 10 | chain 1 N35C W36F | 0.644 |
| ≥ 10 | chain 1 N35D W36V | 0.668 |
| ≥ 10 | chain 1 N35F W36Q | 0.38 |
| ≥ 10 | chain 1 N35G V37K | 0.46 |
| ≥ 10 | chain 1 N35H V37Y | 0.779 |
| ≥ 10 | chain 1 N35H W36S | 0.692 |
| ≥ 10 | chain 1 N35I V37M | 0.626 |
| ≥ 10 | chain 1 N35K V37S | 0.732 |
| ≥ 10 | chain 1 N35L | 0.692 |

| Kd (fluorescein) [µM] | Variant | yeast surface expression [1] |
| --- | --- | --- |
| ≥ 10 | chain 1 N35M | 0.715 |
| ≥ 10 | chain 1 N35M V37Y | 0.798 |
| ≥ 10 | chain 1 N35P | 0.672 |
| ≥ 10 | chain 1 N35Q | 0.814 |
| ≥ 10 | chain 1 N35R W36K | 2.76 |
| ≥ 10 | chain 1 N35R W36R | 0.425 |
| ≥ 10 | chain 1 N35S | 1.04 |
| ≥ 10 | chain 1 N35S V37E | 0.574 |
| ≥ 10 | chain 1 N35S W36Y | 0.787 |
| ≥ 10 | chain 1 N35V | 0.596 |
| ≥ 10 | chain 1 N35V V37Y | 0.727 |
| ≥ 10 | chain 1 N35W | 0.6 |
| 0.021 | chain 1 N35W V37G | 1.18 |
| ≥ 10 | chain 1 N35W V37Q | 0.372 |
| ≥ 10 | chain 1 N35Y | 0.697 |
| ≥ 10 | chain 1 N35Y W36Y V37D | 1.04 |
| 0.000803 | chain 1 S30A | 1.08 |
| 0.00158 | chain 1 S30A D31A V37C | 0.739 |
| 0.00104 | chain 1 S30A M34C | 0.868 |

| Kd (fluorescein) [µM] | Variant | yeast surface expression [1] |
| --- | --- | --- |
| 0.00115 | chain 1 S30A M34L | 1.1 |
| 0.00871 | chain 1 S30A V37R | 1.16 |
| 0.0391 | chain 1 S30A V37Y | 1.1 |
| ≥ 10 | chain 1 S30A W33N | 0.914 |
| ≥ 10 | chain 1 S30C W33L | 0.696 |
| 0.021 | chain 1 S30C W36G | 0.208 |
| 0.0434 | chain 1 S30C W36Y | 0.691 |
| ≥ 10 | chain 1 S30D D31G W33A | 0.663 |
| ≥ 10 | chain 1 S30D N35Q | 0.883 |
| ≥ 10 | chain 1 S30D V37P | 0.55 |
| ≥ 10 | chain 1 S30D W33N | 1.07 |
| ≥ 10 | chain 1 S30D W36V | 0.766 |
| 0.000504 | chain 1 S30E D31N | 0.934 |
| 0.00239 | chain 1 S30E D31S | 0.987 |
| ≥ 10 | chain 1 S30E M34T W36T | 0.353 |
| ≥ 10 | chain 1 S30E N35E | 0.894 |
| ≥ 10 | chain 1 S30E W33K | 0.771 |
| 0.00205 | chain 1 S30F | 0.828 |
